One molecule from patent US12233115B2, “Long-acting parathyroid hormone” (Extend Biosciences, Inc., priority 2022, dated 2025) can be followed below.

SMILES strings stand for the structures. Like-named read-outs stand apart in the source and are kept apart here.

The Kd is the free concentration of one partner at which half of the binding sites on the other are occupied at equilibrium, for simple one-to-one binding. Broadly, the Tmax is the time at which the peak concentration occurs.

The target of data set [1] is T1, vitamin D binding protein (DBP) (Homo sapiens, UniProt P02774).
T1 construct: purchased Athens Research and Technology 16-16-070307
T1 sequence (P02774 17-474): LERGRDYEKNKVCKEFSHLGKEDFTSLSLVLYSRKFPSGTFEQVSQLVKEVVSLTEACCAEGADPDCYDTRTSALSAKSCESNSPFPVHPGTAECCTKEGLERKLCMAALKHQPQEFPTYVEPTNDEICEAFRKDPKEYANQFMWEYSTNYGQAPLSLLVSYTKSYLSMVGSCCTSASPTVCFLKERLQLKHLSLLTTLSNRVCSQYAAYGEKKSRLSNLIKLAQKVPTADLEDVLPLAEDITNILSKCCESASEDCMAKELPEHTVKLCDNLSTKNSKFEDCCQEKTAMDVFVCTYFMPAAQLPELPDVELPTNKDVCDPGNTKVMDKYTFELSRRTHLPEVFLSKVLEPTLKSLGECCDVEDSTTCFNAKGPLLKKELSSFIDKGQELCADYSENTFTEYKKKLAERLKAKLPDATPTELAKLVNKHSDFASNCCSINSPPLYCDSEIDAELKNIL
The data set can be described thus: Bio-layer interferometry binding of DBP to immobilized biotinylated conjugate. The note with it: BLI steady state fit, DBP 0-75 μM; read-out: KD (binding equilibrium constant). The procedure:
EXT607 and EXT608 were biotinylated using the EZ-Link Sulfo-NHS Biotin No-Weigh kit (Thermo Fisher Scientific, Waltham, MA, Catalog No. PIA39256). One mmol of biotin was reacted with 1 mmol of conjugate for 1 hour at room temperature. Unbound biotin was separated from biotinylated conjugate with a PD-10 desalting column (GE Lifesciences/Cytiva, Marlborough, MA, Catalog No. 17085101). The biotinylation ratio was quantitated using the Pierce Biotin Quantitation Kit (Thermo Fisher Scientific, Waltham, MA, Catalog No. PI28005). DBP was purchased from Athens Research and Technology (Athens, GA, Catalog No. 16-16-070307).
Affinity measurements were collected on the Octet Red96 using prehydrated Dip and Read Streptavidin (SA) Biosensors (ForteBio, Fremont, CA, Catalog No. 18-5021). Reagents were diluted into phosphate buffered saline (PBS) with 0.02% Tween 20 in a black 96-well plate. Biotinylated EXT607 or EXT608 were prepared at a biotin concentration of 50 μg/mL and loaded onto the SA tips for 2 minutes. A buffer-only negative loading control was used to measure non-specific binding of DBP to the SA biosensors. A titration of DBP ranging from 0 to 75 μM was prepared. DBP was associated to the loaded tips for 5 minutes and dissociated with buffer solution for 10 minutes.
In general terms: Biolayer interferometry detects binding as a change in optical thickness at a sensor tip.

The nature of data set [2]: Repeat dose pharmacokinetics of EXT608 in male and female rats. To be noted: rat; for Cmin: 0-24 h; for AUC(0-t): sc, read-out: AUC0-24 h. Type of data set: in vivo. The procedure:
21-Day Experiment: EXT608 was formulated in 20 mM sodium acetate pH=5.5 buffer with 0.8% sodium chloride. In a repeat dose toxicokinetic study, groups of 18 rats (9 males+9 females) were subcutaneously dosed daily at a volume of 0.5 ml/kg with either 14.2 μg/kg or 70 μg/kg of EXT608. On Day 21, blood samples (˜0.5 ml) were collected at t=0 (pre-dose), 0.5, 1, 3, 8, 24, 32, 48, and 72 h with each timepoint being collected from one of three cohorts of 3 male and 3 female animals. Each blood sample was collected from the jugular vein into tubes containing K2EDTA and manually inverted several times. Blood samples were kept on wet ice pending centrifugation. Samples were centrifuged (˜2700 g, ˜10 min, ˜5° C.) within 1 hour of collection. Plasma was recovered and divided evenly into duplicate aliquots and frozen. 90-Day Experiment: EXT608 was formulated in 20 mM sodium acetate pH=5.5 buffer with 0.8% sodium chloride and 0.1% Polysorbate 80. In a repeat dose toxicokinetic study, groups of 18 rats (9 males+9 females) were subcutaneously dosed daily at a volume of 0.5 ml/kg with either 1, 3, or 10 μg/kg of EXT608. On Day 90, blood samples (˜0.5 ml) were collected at t=0 (pre-dose), 0.5, 1, 3, 8, 24, 32, 48, and 72 h with each timepoint being collected from one of three cohorts of 3 male and 3 female animals. Plasma was prepared as described above for the 21-Day experiment. […] Group-averaged EXT608 levels as a function of time are shown in FIG. 13 for the last dose administration after either 21 days of daily dosing (14.2 and 70 μg/kg) or 90 days of daily dosing (1, 3, and 10 μg/kg). Surprising, the PK profiles changed as a function of dose level. […] Pharmacokinetic parameters were determined from the plasma concentration versus time data (Table 6) by a non-compartmental extravascular administration model with uniform weighting using Phoenix® WinNonlin® Version 6.4 (Certara L.P. (Pharsight), Princeton, NJ). Pharmacokinetic analysis was performed on data collected from t=0 to 72 h following the last administered dose. […] The Cmax/Cmin ratio represents the peak-to-trough ratio of EXT608 concentration that was observed during the dosing period. […] Without being bound by theory, the low peak-to-trough ratios observed at low doses could be the result of a slower rate of absorption of EXT608 from the subcutaneous space into circulation. A low peak-to-trough ratio is desirable in many therapeutic applications, including parathyroid hormone replacement therapy. It allows dosing at levels close to the ideal efficacious dose without going too high where toxicity might be observed or too low where the efficacy is reduced.

Where [3] appears, read: in vivo, 1 ug/kg, daily SC 1 μg/kg, 90 days.

Regarding `C=C1CC[C@H](OCCCNC(=O)CCOCCOCCOCCOCCOCCOCCOCCOCCOCCOCCOCCOCCOCCOCCOCCOCCOCCOCCOCCOCCOCCOCCOCCOCCOCCOCCOCCOCCOCCOCCOCCOCCOCCOCCOCCOCCNC(=O)CCN2C(=O)CC(SC[C@H](NC(=O)[C@H](Cc3ccccc3)NC(=O)[C@H](CC(N)=O)NC(=O)[C@H](Cc3c[nH]cn3)NC(=O)[C@@H](NC(=O)[C@H](CC(=O)O)NC(=O)[C@H](CCC(N)=O)NC(=O)[C@H](CC(C)C)NC(=O)[C@H](CCCCN)NC(=O)[C@H](CCCCN)NC(=O)[C@H](CCCNC(=N)N)NC(=O)[C@H](CC(C)C)NC(=O)[C@H](Cc3c[nH]c4ccccc34)NC(=O)[C@H](CCC(=O)O)NC(=O)[C@@H](NC(=O)[C@H](CCCNC(=N)N)NC(=O)[C@H](CCC(=O)O)NC(=O)[C@H](CCSC)NC(=O)[C@H](CO)NC(=O)[C@H](CC(N)=O)NC(=O)[C@H](CC(C)C)NC(=O)[C@H](Cc3c[nH]cn3)NC(=O)[C@H](CCCCN)NC(=O)CNC(=O)[C@H](CC(C)C)NC(=O)[C@H](CC(N)=O)NC(=O)[C@H](Cc3c[nH]cn3)NC(=O)[C@H](CCSC)NC(=O)[C@H](CC(C)C)NC(=O)[C@H](CCC(N)=O)NC(=O)[C@@H](NC(=O)[C@H](CCC(=O)O)NC(=O)[C@H](CO)NC(=O)[C@@H](NC(=O)[C@@H](N)CO)C(C)C)[C@@H](C)CC)C(C)C)C(C)C)C(N)=O)C2=O)C/C1=C/C=C1\CCC[C@]2(C)[C@@H]([C@H](C)CCCC(C)(C)O)CC[C@@H]12` (stereo partly shown) [EXT608], the Kd in data set [1] was 5.2 µM. Besides, the Tmax in data set [2] (setting [3]) was found to be 1 h. Further, in data set [2] (in vivo, repeated daily SC dosing, across doses 1-70 μg/kg, read-out: t1/2 of elimination), the half-life fell in the range of 10.4 to 13.8 h. In addition, the Cmin in data set [2] (daily SC 1 μg/kg, 90 days) is listed as 0.299 ng/mL; in data set [2] (daily SC 3 μg/kg, 90 days), 0.875 ng/mL; in data set [2] (daily SC 10 μg/kg, 90 days), 1.56 ng/mL; in data set [2] (daily SC 14.2 μg/kg, 21 days) it was 2.35 ng/mL; in data set [2] (daily SC 70 μg/kg, 21 days), 5.92 ng/mL. Further, the AUC(0-t) was 11.2 ng·h/mL in data set [2] (setting [3]); 29.9 ng·h/mL in data set [2] (in vivo, 3 ug/kg, daily SC 3 μg/kg, 90 days); 93.2 ng·h/mL in data set [2] (in vivo, 10 ug/kg, daily SC 10 μg/kg, 90 days); 149 ng·h/mL in data set [2] (in vivo, 14.2 ug/kg, daily SC 14.2 μg/kg, 21 days); 875 ng·h/mL in data set [2] (in vivo, 70 ug/kg, daily SC 70 μg/kg, 21 days).
